Tests used:
[1] = molecular target: tA27-WT (aa 21–84, C71A/C72A, extra N-terminal tryptophan) (vaccinia virus (Western Reserve strain)) (UniProt P11258); test: AUC
[2] = molecular target: tA27-WT (aa 21–84, C71A/C72A, extra N-terminal tryptophan) (vaccinia virus (Western Reserve strain)) (UniProt P11258); test: SEC-MALS
[3] = molecular target: the molecule itself; test: non-reducing SDS-PAGE with immunoblot (disulfide-linked complexes)

Molecule	stoichiometry N [1]	stoichiometry N [2]	stoichiometry N [3]
tA27-WT (aa 21–84, C71A/C72A, extra N-terminal tryptophan) (from UniProt P11258 21-84) (domain or fragment)	2	2	
Vaccinia virus A27 protein, full length wild type (natural protein) MDGTLFPGDDDLAIPATEFFSTKAAKKPEAKREAIVKADEDDNEETLKQRLTNLEKKITNVTTKFEQIEKCCKRNDEVLFRLENHAETLRAAMISLAKKIDVQTGRRPYE			2

— article PMC3749956 (PLoS Pathogens, 2013)
